Assay results published in US20130331333A1 (HADASIT MEDICAL RESEARCH SERVICES AND DEVELOPMENT, published 2013).

What was measured:
[1] = biological target: T1, Etk/Bmx (epithelial tyrosine kinase), wild type (UniProt P51813 1-675); experiment: co-immunoprecipitation with anti-HA, anti-Bmx blot, MCF7 clones after PAR1 activation
T1 construct: Plasmids after Tsai et al. 2000; also called wt-Etk
T1 sequence (looked up): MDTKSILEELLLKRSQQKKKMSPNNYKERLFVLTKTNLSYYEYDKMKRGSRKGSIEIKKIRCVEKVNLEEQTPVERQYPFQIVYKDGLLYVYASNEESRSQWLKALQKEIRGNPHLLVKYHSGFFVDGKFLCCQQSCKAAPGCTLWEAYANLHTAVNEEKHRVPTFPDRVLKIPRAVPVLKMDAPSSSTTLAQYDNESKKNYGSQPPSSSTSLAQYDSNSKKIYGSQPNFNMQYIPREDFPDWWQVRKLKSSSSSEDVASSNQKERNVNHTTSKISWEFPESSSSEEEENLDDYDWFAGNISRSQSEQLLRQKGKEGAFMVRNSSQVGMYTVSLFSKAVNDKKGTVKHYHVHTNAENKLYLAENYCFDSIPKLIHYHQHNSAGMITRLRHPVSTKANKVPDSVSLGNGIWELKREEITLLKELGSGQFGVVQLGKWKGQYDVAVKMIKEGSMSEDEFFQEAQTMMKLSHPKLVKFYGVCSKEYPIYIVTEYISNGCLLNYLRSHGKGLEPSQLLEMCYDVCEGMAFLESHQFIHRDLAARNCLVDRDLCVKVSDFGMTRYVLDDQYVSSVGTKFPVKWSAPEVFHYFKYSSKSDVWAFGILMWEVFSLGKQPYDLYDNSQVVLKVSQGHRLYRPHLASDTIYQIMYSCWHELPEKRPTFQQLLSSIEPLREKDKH
Description: After overnight incubation, Protein A-Sepharose beads (Amersham Pharmacia Biotech, Buckinghamshire, UK) were added to the suspension (50 μl), which was rotated at 4° C. for 1 h. The immunocomplexes were eluted and run electrophoretically on a 10% SDS-PAGE gel, followed by transfer to an Immobilon-P membrane (Millipore). Membranes were blocked and probed with 1 μg/ml amounts of the appropriate antibodies as follows: anti-PAR₁ thrombin receptor mAb, (ATAP, from Santa Cruz, 1:1000); anti-Shc (BD, 1:2000); anti-Bmx (Transduction Laboratories, 1:1000) or anti-PY (Upstate 4G10, 1:2500), suspended in 3% BSA in 10 mM Tris-HCl, pH 7.5, 100 mM NaCl, and 0.5% Tween-20. After washes the blots were incubated with secondary antibodies conjugated to horseradish-peroxidase. Immunoreactive bands were detected by enhanced chemiluminescence (ECL). Membranes were stripped and incubated with anti-IP antibodies to ensure equal protein load.
Based on the competition assay mutated hPar1 constructs with successive replacement of seven residues (378-384; CQRYVYS) were prepared. […] The clones expressing either HA-tagged wt hPar1 or a mutant construct of HA-hPar1-7A were activated and further analyzed for co-immunoprecipitation (IP) of PAR₁ with Etk/Bmx. […] The blots were detected by anti-Bmx (Transduction Laboratories, BD Biosciences, CA) for the identification of Etk/Bmx-associated PAR₁. […]

Akt (PKB) = Akt (PKB) (UniProt P31749 1-480, limits assumed); experiment: co-immunoprecipitation of Akt and PAR1 in transfected HU cells
Description: Western blot and immunoprecipitation analysis: Cells were activated with agonist peptide […] (SEQ ID NO: 35) for the indicated periods of time and solubilized in lysis buffer containing 10 mM Tris-HCl, pH 7.4, 150 mM NaCl, 1 mM EDTA, 1% TritonX-100, and protease inhibitors ([…] aprotinin, 1 mM phenylmethylsulfonylfluoride, and […] leupeptin) at 4° C. for 30 min. The cell lysates were subjected to centrifugation at 12,000 rpm at 4° C. for 20 min. We used 400 μg of the supernatants with anti-PAR₁ (ATAP, Santa Cruz, Calif. 1 μg), anti-HA (anti-HA sc-7392; Santa Cruz, Calif.), anti-Shc or Etk/Bmx antibodies (10 μg/ml). After overnight incubation, Protein A-Sepharose beads (Amersham Pharmacia Biotech, Buckinghamshire, UK) were added to the suspension (50 μl), which was rotated at 4° C. for 1 h. The immunocomplexes were eluted and run electrophoretically on a 10% SDS-PAGE gel, followed by transfer to an Immobilon-P membrane (Millipore). […] Immunoreactive bands were detected by enhanced chemiluminescence (ECL). […]
Namely, without wishing to be bound by theory the PAR₁-C-tail appears to be an anchor region for association with PH-domain containing proteins. For this purpose, the association between Akt (which is ubiquitously expressed in the cells) and PAR₁ was analyzed, following activation. […]

Chain of Akt (PKB) (P31749 whole entry): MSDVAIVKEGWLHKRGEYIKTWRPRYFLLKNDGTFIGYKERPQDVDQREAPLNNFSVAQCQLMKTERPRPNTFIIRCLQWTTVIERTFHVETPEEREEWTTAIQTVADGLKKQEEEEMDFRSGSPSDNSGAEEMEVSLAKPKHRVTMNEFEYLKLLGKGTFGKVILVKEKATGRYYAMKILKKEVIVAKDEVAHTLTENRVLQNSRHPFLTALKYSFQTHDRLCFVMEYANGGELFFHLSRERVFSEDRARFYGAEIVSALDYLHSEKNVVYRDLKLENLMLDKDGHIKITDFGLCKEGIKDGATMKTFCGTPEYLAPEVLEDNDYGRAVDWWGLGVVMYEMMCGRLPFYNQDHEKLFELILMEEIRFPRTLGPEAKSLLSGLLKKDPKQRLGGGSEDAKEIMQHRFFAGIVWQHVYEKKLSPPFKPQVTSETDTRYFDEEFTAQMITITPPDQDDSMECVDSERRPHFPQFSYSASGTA

binding result [1]: no binding
binding result (Akt (PKB)): no binding
B1: HA-tagged mutant hPar1-7A (receptor, human, UniProt P25116 42-425, looked up)
chain: SFLLRNPNDKYEPFWEDEEKNESGLTEYRLVSINKSSPLQKQLPAFISEDASGYLTSSWLTLFVPSVYTGVFVVSLPLNIMAIVVFILKMKVKKPAVVYMLHLATADVLFVSVLPFKISYYFSGSDWQFGSELCRFVTAAFYCNMYASILLMTVISIDRFLAVVYPMQSLSWRTLGRASFTCLAIWALAIAGVVPLLLKEQTIQVPGLNITTCHDVLNETLLEGYYAYYFSAFSAVFFFVPLIISTVCYVSIIRCLSSSAVANRSKKSRALFLSAAVFCIFIICFGPTNVLLIAHYSFLSHTSTTEAAYFAYLLCVCVSSISCCIDPLIYYYASSEAAAAAAAILCCKESSDPSSYNSSGQLMASKMDTCSSNLNNSIYKKLLT
notes: whole, on cells; Tested in lysates of transfected cells; also called HA-hPar1-7A; PAR1A7; not shown: HA tag
